Data published in paper PMC10078426 (2022).

Target: human IgG from serum (human, UniProt P01857 = IgG part)
Assay: SPR

B1: protein G only (natural protein)
chain: VDSPIEDTPIIRNGGELTNLLGNSETTLALRNEESATADLTAAAVADTVAAAAAENAGAAAWEAAAAADALAKAKADALKEFNKYGVSDYYKNLINNAKTVEGVKDLQAQVVESAKKARISEATDGLSDFLKSQTPAEDTVKSIELAEAKVLANRELDKYGVSDYHKNLINNAKTVEGVKDLQAQVVESAKKARISEATDGLSDFLKSQTPAEDTVKSIELAEAKVLANRELDKYGVSDYYKNLINNAKTVEGVKALIDEILAALPKTDTYKLILNGKTLKGETTTEAVDAATAEKVFKQYANDNGVDGEWTYDDATKTFTVTEKPEVIDASELTPAVTTYKLVINGKTLKGETTTEAVDAATAEKVFKQYANDNGVDGEWTYDDATKTFTVTEKPEVIDASELTPAVTTYKLVINGKTLKGETTTKAVDAETAEKAFKQYANDNGVDGVWTYDDATKTFTVTEMVTEVPGDAPTEPEKPEASIPLVPLTPATPIAKDDAKKDDTKKEDAKKPEAKKEDAKKAETLPTT
Kd: 35.6 nM
